The source of these data is patent US20260250420A1 (SICHUAN KELUN BIOTECH BIOPHARMACEUTICAL, published 2026).

What is called EC50 is the concentration that produces a half-maximal response.

Test [1] addresses T1, human PTK7 on cells (tumor cells endogenously expressing PTK7); CHO-hPTK7, CHO-S-hPTK7 and 293T-hPTK7 … (human, UniProt Q13308 31-1070).
T1 construct: whole, on cells; The cell line of each value is named under assay; also called H1299; H358
T1 sequence (looked up): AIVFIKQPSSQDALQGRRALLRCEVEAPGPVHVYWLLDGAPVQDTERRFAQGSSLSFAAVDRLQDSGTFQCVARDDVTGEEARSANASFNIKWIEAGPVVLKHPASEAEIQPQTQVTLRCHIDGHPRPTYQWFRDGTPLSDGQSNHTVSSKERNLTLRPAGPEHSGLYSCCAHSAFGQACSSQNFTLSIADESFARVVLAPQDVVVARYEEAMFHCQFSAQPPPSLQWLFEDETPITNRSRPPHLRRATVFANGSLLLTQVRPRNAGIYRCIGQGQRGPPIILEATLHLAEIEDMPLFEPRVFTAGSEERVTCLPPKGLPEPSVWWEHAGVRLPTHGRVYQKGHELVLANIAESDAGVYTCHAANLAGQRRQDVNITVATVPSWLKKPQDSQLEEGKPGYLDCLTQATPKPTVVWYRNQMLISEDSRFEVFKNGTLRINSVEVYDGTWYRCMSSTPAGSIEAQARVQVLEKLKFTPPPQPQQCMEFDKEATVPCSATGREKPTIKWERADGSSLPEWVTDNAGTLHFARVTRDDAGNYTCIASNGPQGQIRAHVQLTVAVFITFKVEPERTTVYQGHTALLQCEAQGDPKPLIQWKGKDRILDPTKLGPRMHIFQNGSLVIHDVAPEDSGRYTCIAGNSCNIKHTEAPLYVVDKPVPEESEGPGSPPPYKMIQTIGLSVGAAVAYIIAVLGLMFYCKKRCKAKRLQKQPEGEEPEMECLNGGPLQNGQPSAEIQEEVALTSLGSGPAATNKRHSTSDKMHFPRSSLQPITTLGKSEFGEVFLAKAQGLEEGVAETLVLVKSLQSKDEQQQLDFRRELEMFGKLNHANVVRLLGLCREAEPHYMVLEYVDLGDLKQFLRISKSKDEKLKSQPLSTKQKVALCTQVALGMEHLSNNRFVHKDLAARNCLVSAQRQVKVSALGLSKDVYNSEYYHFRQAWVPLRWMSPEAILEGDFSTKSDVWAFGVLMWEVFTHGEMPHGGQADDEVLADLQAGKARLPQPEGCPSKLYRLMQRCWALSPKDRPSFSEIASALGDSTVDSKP
The test can be described thus: flow cytometry on H1975 cells. From the text:
A flow cytometer (Beckman, Cytoflex) was used for detecting the affinity of the anti-human PTK7 chimeric and humanized antibodies with human non-small cell lung cancer cells H1299, human lung adenocarcinoma cells H1975, human breast cancer cells T47D, human ovarian cancer cells OVCAR-3 (all purchased from NANJING COBIOER BIOSCIENCES CO., LTD) and CHO-hPTK7 overexpression cells.
The adherent cells were digested by using a pancreatin (Gibco) solution; a proper amount of cells were counted and taken, washed twice by using 1×PBS, and re-suspended in a 1% BSA solution; and then the cells were transferred into a 96-well deep plate at a density of 50 μl/well; a candidate antibody was diluted by using 1% BSA, then 50 μl of diluted antibody was added into the deep plate containing the cells, and incubated for 40 min at 4° C.; the cells were washed twice by using PBS, then 50 μl of diluted secondary antibody was added into each well, uniformly mixed, and incubated for 30 min at 4° C.; and the cells were washed twice by using PBS, then re-suspended in 400 μl of PBS, and subjected to examination by flow cytometer.

For test [2], the target named is T2, monkey PTK7 protein (extracellular sequence of monkey PTK7 with C-terminal 6×His tag) (monkey).
T2 chain: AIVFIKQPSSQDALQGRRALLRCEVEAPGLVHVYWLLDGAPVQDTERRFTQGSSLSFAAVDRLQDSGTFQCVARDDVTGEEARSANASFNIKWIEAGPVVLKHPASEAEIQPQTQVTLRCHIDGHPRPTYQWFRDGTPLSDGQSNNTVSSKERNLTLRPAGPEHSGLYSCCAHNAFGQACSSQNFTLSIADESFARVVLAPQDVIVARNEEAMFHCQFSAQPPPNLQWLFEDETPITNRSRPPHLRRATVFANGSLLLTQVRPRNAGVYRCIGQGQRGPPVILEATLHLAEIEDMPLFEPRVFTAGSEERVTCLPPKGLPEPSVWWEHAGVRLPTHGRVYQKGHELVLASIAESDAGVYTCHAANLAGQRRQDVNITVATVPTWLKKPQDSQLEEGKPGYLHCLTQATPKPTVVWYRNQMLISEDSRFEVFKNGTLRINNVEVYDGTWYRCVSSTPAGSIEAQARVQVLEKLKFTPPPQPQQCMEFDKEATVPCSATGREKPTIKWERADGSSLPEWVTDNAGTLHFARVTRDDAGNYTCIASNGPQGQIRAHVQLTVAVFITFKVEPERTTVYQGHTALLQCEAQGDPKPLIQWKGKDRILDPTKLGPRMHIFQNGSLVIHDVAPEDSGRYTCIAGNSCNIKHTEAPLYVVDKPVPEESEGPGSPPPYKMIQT
Put plainly: ELISA, coated monkey PTK7 protein. (In general: In an ELISA, binding on a coated surface is turned into a signal by an enzyme label.)

Test [3] deals with T1, human PTK7 on cells (tumor cells …). Put plainly: cell-based or functional assay.

B1: 64A10HZ (anti-human PTK7 humanized antibody) (antibody, human IgG1, kappa, V domains shown)
VH: QVQLQESGPGLVKPSETLSLTCTVSGFSLTSYGVYWVRQPPGKGPEWLGVIWTSGNTNYNPSLKSRLTISKDNSKNQVSLKLSSVTAADTAVYYCVKHDGGNYVGVMNYWGQGTLVTVSS
VL: EIVMTQSPDFQSVTPKEKVTITCRASQSISDYLHWYQQKPDQSPKLLIKYASQSISGVPSRFSGSGSGSDFTLTINSLEAEDAATYYCQNGHSFPPTFGQGTKLEIKR
notes: Human IgG1 heavy chain constant region and human Kappa light chain constant region; expressed in CHO-S cells
With B1, the values for the EC50 in test [1] and in test [2] were 0.0767 µg/mL and 0.0201 µg/mL, respectively. Besides, in test [3], the “FADU cell endocytosis activity, EC50” value turned out to be 0.147 µg/mL.

B2: Hu24 (PTK7 control antibody, taken from Hu24 in the Patent CN201580030255) (antibody)
chain 1: QVQLVQSGPEVKKPGASVKVSCKASGYTFTDYAVHWVRQAPGKRLEWIGVISTYNDYTYNNQDFKGRVTMTRDTSASTAYMELSRLRSEDTAVYYCARGNSYFYALDYWGQGTSVTVSS
chain 2: EIVLTQSPATLSLSPGERATLSCRASESVDSYGKSFMHWYQQKPGQAPRLLIYRASNLESGIPARFSGSGSGTDFTLTISSLEPEDFAVYYCQQSNEDPWTFGGGTKLEIK
As for B2, the EC50 in test [1] and in test [2] was 0.134 µg/mL throughout. Moreover, the “FADU cell endocytosis activity, EC50” value in test [3] is 0.18 µg/mL.

B3: 101A6HZ (anti-human PTK7 humanized antibody) (antibody, human IgG1, kappa)
heavy: not shown
light: DIVMTQSPDSLAVSLGERATINCKASQDVGSAVIWYQQKPGQSPKLLIYWASTRHTGVPDRFSGSGSGTDFTLTISSLQAEDVAVYYCQQYSSYPLTFGQGTKLEIKRTVAAPSVFIFPPSDEQLKSGTASVVCLLNNFYPREAKVQWKVDNALQSGNSQESVTEQDSKDSTYSLSSTLTLSKADYEKHKVYACEVTHQGLSSPVTKSFNRGEC
For the molecule B3, the EC50 in test [1] came out at 0.178 µg/mL; in test [2], 1.23 µg/mL. The “FADU cell endocytosis activity, EC50” value in test [3] came out at 0.115 µg/mL.
